# Results from patent US20180244779A1 (KADMON, published 2018).
# T1: mPD-1-Fc (murine, UniProt Q02242 25-167, limits assumed)
# T1 construct: also called murine PD-1; not shown: Fc part
# T1 sequence (looked up): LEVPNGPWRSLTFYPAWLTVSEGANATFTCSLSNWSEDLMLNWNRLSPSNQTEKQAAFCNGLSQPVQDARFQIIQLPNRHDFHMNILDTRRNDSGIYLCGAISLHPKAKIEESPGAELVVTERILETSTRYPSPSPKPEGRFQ
# How the values were obtained:
# hPD-1-Fc = biological target: T2, hPD-1-Fc (human, UniProt Q15116 25-167, limits assumed); experiment: dose-response ELISA, immobilized hPD-1-Fc
# T2 construct: It was immobilized on the ELISA plate; also called soluble human PD-1-Fc; not shown: Fc part
# Protocol: (§1) The binding activity of the five antibodies was examined using dose-response ELISA. The serially diluted antibodies were added to immobilized hPD-1-Fc and detected by HRP conjugated anti-hIgG Fab specific antibody. The OD450 reading was plotted vs. log antibody concentration using GraphPad Prism6. EC50 was calculated by using “dose-response” (stimulation) variable slope (four parameters)” program. The antibodies were also added to immobilized mPD-1-Fc and other Fc-fusions to determine specificity for hPD-1-Fc and to immobilized anti-human IgG fc specific antibody (anti-hFc Ab) to check the accuracy of the concentration measurement.
# mPD-1-Fc = biological target: T1, mPD-1-Fc; experiment: dose-response ELISA, immobilized mPD-1-Fc
# Protocol: as §1
# T2 sequence (Q15116 25-167 limits assumed): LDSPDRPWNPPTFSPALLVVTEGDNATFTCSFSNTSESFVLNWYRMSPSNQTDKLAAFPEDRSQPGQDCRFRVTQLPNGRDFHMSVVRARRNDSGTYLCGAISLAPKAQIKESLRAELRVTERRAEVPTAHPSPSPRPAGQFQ
Binder,binding result (hPD-1-Fc),binding result (mPD-1-Fc)
"R3A1 (antibody, V domains shown) VH: EVQLLESGGGLVQPGGSLRLSCAASGFTFSRYHMMWVRQAPGKGLEWVSSIYPSGGYTYYADSVKGRFTISRDNSKNTLYLQMNSLRAEDTAVYYCAREYFSGPDYWGQGTLVTVSS VL: DIQMTQSPSTLSASVGDRVTITCRASQKISRWLAWYQQTPGKAPKLLIYRASDLESGVPSRFSGSGSGTEFTLTISSLQPDDFATYYCQQYNTYPYTFGQGTKLEIKR",binds,
"R3A2 (antibody, V domains shown) VH: EVQLLESGGGLVQPGGSLRLSCAASGFTFSWYSMLWVRQAPGKGLEWVSRIYPSGGFTYYADSVKGRFTISRDNSKNTLYLQMNSLRAEDTAVYYCARVIDIVGATGRLQHGMDVWGQGTTVTVSS VL: QYELTQPPSVSVAPGQTAKITCGGNNIGSKSVNWYQQKTGQAPVLVVHDDSDRPSGIPERLSGSNSGNTATLTISRAEAGDEADYYCQVWDSVSDHYVFGTGTKVTVLG",binds,
"R4B3 (antibody, V domains shown) VH: EVQLLESGGGLVQPGGSLRLSCAASGFTFSYYWMSWVRQAPGKGLEWVSYISPSGGMTKYADSVKGRFTISRDNSKNTLYLQMNSLRAEDTAVYYCASASYDYVWGIYHYDVFDIWGQGTMVTVSS VL: DIQMTQSPSSVSASVGDRVTITCRASQGISSWLAWYQQKPGKAPKLLIYAASSLQSGVPSRFSGSGSGTDFTLTISSLQPEDFATYYCQQANSFPLTFGGGTKVEIKR",binds,binds
"R3D6 (antibody, V domains shown) VH: EVQLLESGGGLVQPGGSLRLSCAASGFTFSDYNMAWVRQAPGKGLEWVSSIGPSGGNTHYADSVKGRFTISRDNSKNTLYLQMNSLRAEDMAVYYCARERVEYYYYGMDVWGKGTTVTVSS VL: QSALTQAPSVSVAPGQTARITCGGDNIESLSVHWYQQKPGQAPVLVVYDDADRPSGTPERFSGSNSGNTATLTINRAEAGDEADYYCQVWDYSSDVVVFGGGTTLTVLG",binds,
